Measurements as given in the supplement of paper PMC9170038.

These sequences were tested on K4 kissing-loop RNA reporter (assay: apparent KD of K4 kissing-loop reporter; higher = weaker reporter binding). Conditions: Eterna round: R107; input ligand: FMN 200 uM.
Method: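 RNA-MaP round R107: designed RNA switches with theophylline, tryptophan, arginine or FMN aptamers are transcribed on-chip within common flanks. They are titrated with a labelled K4 kissing-loop RNA reporter in RNA-MaP buffer (100 mM Tris pH 7.5, 80 mM KCl, 4 mM MgCl2), without ligand or with the indicated ligand. Median apparent KD per design.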
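Note: bound reporter read as fluorescence of individual clusters on recovered sequencing chips by microscopy, with normalized cluster intensities fitted with a binding model.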

| Sequence | apparent KD of K4 kissing-loop reporter [nM] |
| --- | --- |
| GGAACGUUGCGGACUAUCGCAUAAAGUCACCGAGGACCGGUACGGCCGCCACUCGCCAGUGAUGUUGGCGUGUUUGCGCGCUGUA [Isteri] | 99.6 |
| UGAGAGUACCGGAUGGAGAAAUUGUAUGAUACCAGAGCAGAUUACCUCCCUUGGCAGCAUGCAUCCUGCUAGUGAUGUUGGCAAC [theeternabot_sameState_KL_Theo_A_48] | 676 |
| UGAUACCAGACGGCCGCCACUCCUGCAGUCAAAGACUGCUAAGGAAUAUUCGUCCAGUGAUGUUGGAGGACCGGGUCUGGUAUCU [TrypBX 12 #SwitchBubble #Palindromic #StaticStem] | 1370 |
| GUGACGCGGACGGCCGCCACUCCGGUGACCGCUCCGUGCCGCCCUGCGCGAGUGAUGUUCGCCAGGAGGACCGGGUCCGACUUUA [Soesente] | 107 |
| GGUGCGGGCUCGGCCGCCACUCCCUCCUGCCGUAAGGUGGGAUACCGAGUGAUGUUCGGUUGGAGGAGGACCGGGAGCCCGUGCC [#2 Exclusion - Tryptophan B Attempt #16 (HarryS)] | 131 |
| AGAGUCACAUAAGGAUAUCCCUUGACGGGAACCAAGUGAUGUUUGGUUAGACGACCUCUUAUCACGGGAGAAGGUAUAUUUGUAU [theeternabot_sameState_KL_FMN_B_27] | 724 |
| CGCAAGCAGCCAGUGAUGUUGGCUGCCUUGCGAGGACCGGUACGGCCGCCACUCGAAGGCAGCUACUGGUAAACCGUCUAACGGA [Atere] | 117 |
| AAAAUAAGCCAGUGAUGUUGGUAGCCAGAUACCAGCGACGAAAGUCGCCCUUGGCAGCUGUGGACGUACAAAAUAAGUACGUCCU | 1010 |
| UGUACCGAGUCAGGAUAUGGCGUCGAAAGACGAAUCCUAGUGAUGUUAGGGAUCUGCGAAAGCAGUCCAGAAGGGACUUGGUACU [FmnBS 26 #SwitchBubble #StaticStem #DoubleMagnetSystem] | 275 |
| GUGCAGUGAUGUUGCACGAGGAAAGACGAUACCAGCCGUAAAUAAGGCCCUUGGCAGCGUAGGCUAGCAUAAAGUACGCUAGUCC [Enarines] | 110 |
| GGCAGUGAUGUUGCCAGUGGCAGAUUGGAAGGAGCGUGGUGAGACACAGGUAGGUCGCUAAUUGAAGUUGCUGUCACUAGAAUGC [whbob_Ex_Arginine_A_2t132] | 214 |
| ACUUGCACAAAGUCGUCAACCGGUGAAUCAAAGGAUAUUAAUUCACUAAGAAGGUUGAGCCGAGUGAUGUUCGACUGUAAGUCCC [theeternabot_exclusion_KL_FMN_A_34] | 415 |
| AAACGUUGGUCGGAUACCAGUUAGACCGAUAAGGUCAAAACUGGAGUGAUGUUCCCAAAUAACCCUUGGCAGCCGACCGACGAAA [MAT - Same State Theophlline B - Mod of Eli - D12] | 318 |
| GUAUCGCUAGGAGGAUAUUUCAAUCCGCCUAUAAUAGGUGGUACGGAGUGAUGUUCCGAUUUACGGAAAGAAGGCCUAGUGAUAC [FMN B 16] | 142 |
| AAACAACGUGACGAUACCAGCUUACUCGGCAAGCCAGUGAUGUUGGUGAAAAGGAGUCAAAGCCCUUGGCAGCGUCGAAGGUCUG [Georbeer] | 332 |
| GGCCGCAAGGCGGGCCGGCCCACUCCGGAAGGAGCGCCCGCAAGGGCAGGUAGGUCGCCGGAGUGAUGUUCCGGUGGCCGGCCCG [#2 Exclusion - Arginine A Attempt #2 (Inspired by Omei)] | 140 |
| GCAGUGAUGUUGCGCGGGUACAGUGGAGUGCGAGGACCGGUACGGCCGCCACUCGUACAGAACUGGCUAAUAUAUGGAUAGGUGA [VII] | 271 |
| UCGGGCGGCUGAAGGAGCGGGCGGGCCCGAGUGAUGUUCGGGUGGGCCGUGAGGCCCGGAGCCCAGGUAGGUCGCGGUUCCGCCC [#2 Same State - Arginine B Attempt #23 (HarryS)] | 200 |
| GGUGCUGGCCAGUGAUGUUGGCGAAUACUGAAGGAUAUGAUAGGCGUCAGAAGGUCAAGAGUAAUAUCUAGAAUGAAUAGUGAUA [theeternabot_sameState_KL_FMN_A_38] | 296 |
| AUUCGCAGUGAUGUUGCGAUUCCGUUGAGGGAGGAUAUUGGUAAUACAAGAAGGCCCGGCUGCGGGUGAUGUUCGCAUUAGGGCC [Exclusion FMN A GF18] | 151 |
| AAUAUAGUGAUGUUAUAUAAGAAGGAGUUACGAGGACCGGUACGGCCGCCACUCGAAACGAGUGAGGAUUUGGGAGAUUGGGUUU [SSTryptA.M] | 493 |

| Sequence | apparent KD of K4 kissing-loop reporter [nM] |
| --- | --- |
| GGUGUUGUUUGUGCCGUCUUCCUCGUUCCUCGAGGACCGGUACGGCCGCCACUCGAGUGAUGUUUGGGUAGCGAUCCCUGUUAGU [Bdazzled - #10 Exc. Tryptophan A] | 695 |
| GGAUCGCAUGGCGAAAAGCCAUGCGAUCCACGAGGACCGGUACGGCCGCCACUCGCCGGAGUGAUGUUCCGCUACAGAUCUUAAA | 187 |
| AAUGUACAGGGAAGGAGCGUAGUCCAGUGAUGUUGGAAUUAAAUUCCUGUGAUGUUGGUUAUACAGGUAGGUCGCCCUAAAGUGC [KL-XARG-B21] | 112 |
| UGUGUGUAGGGAAGGAGCGCCGAGAGAAGAAGAAAAGAGUGAUGUUCAAGACAAUAAAGACGGCAGGUAGGUCGCCCUGUGUGUG [Default title] | 756 |
| GUAGCACUUGGUAGUGAUGUUACCAAGGACAAGGAUAUCAUCUCAAUGAGAAGGUGUCCUUGGUAACAGCUACGGGAAUAUCCCA [Omei KL FMN A Exc D v2] | 275 |
| AGACUACUGAUAGGAUAUAACAUCCUAGUCGUAUACCGAAAGGUAUACGAUAUCCUUCUAGUGAUGUUAGAAGGGUCGGUAGUCA [Omei KL FMN B Exc B v10] | 113 |
| UGAUGUUUAGUUCACCCAGUGAUGUUGGAAGGAGCGUGCGAAAGCACAGGUAGGUCGCCAACCUAAAAGUGUCUUGAUUAUCUAA [JR_Nu_ExcArginiA_Sub028] | 352 |
| GAUGCAUAUUCCUGGAGGAAGAUGGUUAAGAAGGAUAUCAAAGCCGUGAGAAGGUCUAAACCUAAUAGUCGAGUGAUGUUCGACC [theeternabot_sameState_KL_FMN_A_35] | 231 |
| AUCUGGUUGGGCGAUACCAGUUUGGCAUAGUGAUGUUAUGCAACGCUCAGUGCAAGGCCAAACCCUUGGCAGCGCACAUCCUUUC [theeternabot_exclusion_KL_Theo_B_3] | 128 |
| GGUGUUGUUUGUGCCGUUUUCCUCGUUCCUCGAGGACCGGUACGGCCGCCACUCGAGUGAUGUUUGGGUAGCGAUCCCUGUUAGU [Bdazzled - #9 Exc. Tryptophan A] | 868 |
| AGAUGUCCCUGGGAUACCAGUCGGAGUCUCAGAGCUCGGAGUGAUGUUCUGGGAUGUUUCGGCCCUUGGCAGCUCUGGGACUCCC [#2 Exclusion - Theophylline B Attempt #25 (HarryS)] | 603 |
| GCCGUACGCAUGGAUACCAGCAAUUAUGCUCGUAUCCUAGUGAUGUUAGUGGCGAAUAUUUGCCCUUGGCAGCCAUGCGUACGGC | 1080 |
| ACUCUUGCGUAUGAUACCAGCUUGUACCGCCACAUAUAUUCUAAGAGUUGAGUGAUGUUUAGCCCUUGGCAGCAUACUUGUGCGU [theeternabot_exclusion_KL_Theo_B_42] | 706 |
| UGACUGGACUGAAGGAGCGCUGAACUCCUAGUGAUGUUAGGAAAACGAGACAAAGUCUCGAAGCAGGUAGGUCGCAGUCUAGUCU | 138 |
| GGUAGCAUGGCGGCCGCCACUAUAAAGAAUCCAAAGGAUUCUAGGUAGUGAUGUUACCAUAGCUAUAGGACCGGGCCAUGCUACC | 156 |
| AGUACGGCAAACUUGCAACAAGCCGUACCACGAGGACCGGUACGGCCGCCACUCGAUAACUUGCAGUGAUGUUGCAAGUAAGAAU [(T)''-(K)'-(T)'-(T1)-(T2)-(K1)-(K2)_Design5] | 161 |
| CCCUCACGAGUGAUGUUCGUAGGGUACAGUCAGGAUAUCAUGCGGUUGAGAAGGGACAGAGAAGGCGGCCACGGGUUGCUUAUCU [Ussoat] | 215 |
| UAACGACUCGGAAGGAGCGCGGUUUUAAAAGACUAAGGCCGAGUGAUGUUCGGAGAAGUCCCGCAGGUAGGUCGCCGGGUUGUGG [Ceororedar] | 124 |
| AAGCAGUCUCUUGUAGUCAUCGAAGAUGAACGAGGACCGGUACGGCCGCCACUCGGAGUGAUGUUCCGAAGACUGCAAAAUAAAA [MatMod 17 - Jieux - Exclusion - Tryptophan A] | 581 |
| CGGCUCACGCAAGGAUAUCGCAGUGAGUACUCUGGAAGAAUAAAGCUAGUGAUGUUAGGUUAGAAGCGAGAAGGUGCGGCCGUAU [theeternabot_sameState_KL_FMN_B_30] | 126 |
| UGGAUAUAGUGAUGUUAUAUAGAGAUGGAUACCAGUUGAGAGAAUAGCCCUUGGCAGCCGAAAGAAGUAUCAUUAGAGAAGAAUG [ExTheophyl.Ak] | 269 |

Same assay, conditions: Eterna round: R107; input ligand: arginine 13.2 mM

| Sequence | apparent KD of K4 kissing-loop reporter [nM] |
| --- | --- |
| GGAACGUUGCGGACUAUCGCAUAAAGUCACCGAGGACCGGUACGGCCGCCACUCGCCAGUGAUGUUGGCGUGUUUGCGCGCUGUA [Isteri] | 91.1 |
| UGAGAGUACCGGAUGGAGAAAUUGUAUGAUACCAGAGCAGAUUACCUCCCUUGGCAGCAUGCAUCCUGCUAGUGAUGUUGGCAAC [theeternabot_sameState_KL_Theo_A_48] | 459 |
| UGAUACCAGACGGCCGCCACUCCUGCAGUCAAAGACUGCUAAGGAAUAUUCGUCCAGUGAUGUUGGAGGACCGGGUCUGGUAUCU [TrypBX 12 #SwitchBubble #Palindromic #StaticStem] | 991 |
| GUGACGCGGACGGCCGCCACUCCGGUGACCGCUCCGUGCCGCCCUGCGCGAGUGAUGUUCGCCAGGAGGACCGGGUCCGACUUUA [Soesente] | 101 |
| GGUGCGGGCUCGGCCGCCACUCCCUCCUGCCGUAAGGUGGGAUACCGAGUGAUGUUCGGUUGGAGGAGGACCGGGAGCCCGUGCC [#2 Exclusion - Tryptophan B Attempt #16 (HarryS)] | 102 |
| AGAGUCACAUAAGGAUAUCCCUUGACGGGAACCAAGUGAUGUUUGGUUAGACGACCUCUUAUCACGGGAGAAGGUAUAUUUGUAU [theeternabot_sameState_KL_FMN_B_27] | 580 |
| CGCAAGCAGCCAGUGAUGUUGGCUGCCUUGCGAGGACCGGUACGGCCGCCACUCGAAGGCAGCUACUGGUAAACCGUCUAACGGA [Atere] | 105 |
| AAAAUAAGCCAGUGAUGUUGGUAGCCAGAUACCAGCGACGAAAGUCGCCCUUGGCAGCUGUGGACGUACAAAAUAAGUACGUCCU | 751 |
| UGUACCGAGUCAGGAUAUGGCGUCGAAAGACGAAUCCUAGUGAUGUUAGGGAUCUGCGAAAGCAGUCCAGAAGGGACUUGGUACU [FmnBS 26 #SwitchBubble #StaticStem #DoubleMagnetSystem] | 340 |
| GUGCAGUGAUGUUGCACGAGGAAAGACGAUACCAGCCGUAAAUAAGGCCCUUGGCAGCGUAGGCUAGCAUAAAGUACGCUAGUCC [Enarines] | 105 |
